The record followed here is patent US20210246166A1 (Bayer, published 2021).

The chains are these.
T1: recombinant human MASP1 active protease (amino acids 297-699, C-terminal His Tag) (human, UniProt P48740 297-699)
T1 sequence: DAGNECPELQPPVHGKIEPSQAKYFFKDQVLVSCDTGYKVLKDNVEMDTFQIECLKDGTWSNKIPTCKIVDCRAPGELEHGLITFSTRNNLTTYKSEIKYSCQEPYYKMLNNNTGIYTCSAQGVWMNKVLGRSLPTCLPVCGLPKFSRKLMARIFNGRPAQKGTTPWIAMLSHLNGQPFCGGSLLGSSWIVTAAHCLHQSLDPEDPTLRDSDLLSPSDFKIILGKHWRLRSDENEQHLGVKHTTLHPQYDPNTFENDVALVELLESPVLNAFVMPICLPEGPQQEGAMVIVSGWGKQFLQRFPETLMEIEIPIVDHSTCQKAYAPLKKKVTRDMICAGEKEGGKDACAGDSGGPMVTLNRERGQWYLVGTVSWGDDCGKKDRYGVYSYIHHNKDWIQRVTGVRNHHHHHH

B1: ((N-Me)G)-IC+SRS-((tBu)A)-PPI-(Pen)+IP-(PEG4-CH2CO2H (15 atoms))-NH2 (peptide)
peptide: [Sar]ICSRS[tBuAla]PPI[Pen]IP[NH(CH2CH2O)4CH2CO]-NH2
modifications: disulfide 3-11; N-terminus assumed
SMILES: CC[C@H](C)[C@H](NC(=O)CNC)C(=O)N[C@H]1CSSC(C)(C)[C@@H](C(=O)N[C@H](C(=O)N2CCC[C@H]2C(=O)NCCOCCOCCOCCOCC(N)=O)[C@@H](C)CC)NC(=O)[C@H]([C@@H](C)CC)NC(=O)[C@@H]2CCCN2C(=O)[C@@H]2CCCN2C(=O)[C@H](CC(C)(C)C)NC(=O)[C@H](CO)NC(=O)[C@H](CCCNC(=N)N)NC(=O)[C@H](CO)NC1=O
B2: ((N-Me)G)-IC+SRSLP-(Oic)-I-(Pen)+IP-(PEG1(10 atoms))-NH2 (peptide)
peptide: [Sar]ICSRSLP[Oic]I[Pen]IP[PEG2]-NH2
modifications: disulfide 3-11; N-terminus assumed
SMILES: CC[C@H](C)[C@H](NC(=O)CNC)C(=O)N[C@H]1CSSC(C)(C)[C@@H](C(=O)N[C@H](C(=O)N2CCC[C@H]2C(=O)NCCOCCOCCC(N)=O)[C@@H](C)CC)NC(=O)[C@H]([C@@H](C)CC)NC(=O)[C@@H]2C[C@@H]3CCCC[C@@H]3N2C(=O)[C@@H]2CCCN2C(=O)[C@H](CC(C)C)NC(=O)[C@H](CO)NC(=O)[C@H](CCCNC(=N)N)NC(=O)[C@H](CO)NC1=O
B3: ((N-Me)G)-IC+SRS-((tBu)A)-PPI-(Pen)+IP-(PEG2(13 atoms))-NH2 (peptide)
peptide: [Sar]ICSRS[tBuAla]PPI[Pen]IP[PEG3]-NH2
modifications: disulfide 3-11; N-terminus assumed
SMILES: CC[C@H](C)[C@H](NC(=O)CNC)C(=O)N[C@H]1CSSC(C)(C)[C@@H](C(=O)N[C@H](C(=O)N2CCC[C@H]2C(=O)NCCOCCOCCOCCC(N)=O)[C@@H](C)CC)NC(=O)[C@H]([C@@H](C)CC)NC(=O)[C@@H]2CCCN2C(=O)[C@@H]2CCCN2C(=O)[C@H](CC(C)(C)C)NC(=O)[C@H](CO)NC(=O)[C@H](CCCNC(=N)N)NC(=O)[C@H](CO)NC1=O
B4: (Cit)-IC+SRS-((tBu)A)-PPI-(Pen)+IPD-OH (peptide)
peptide: [Cit]ICSRS[tBuAla]PPI[Pen]IPD-OH
modifications: disulfide 3-11; N-terminus assumed
SMILES: CC[C@H](C)[C@H](NC(=O)[C@@H](N)CCCNC(N)=O)C(=O)N[C@H]1CSSC(C)(C)[C@@H](C(=O)N[C@H](C(=O)N2CCC[C@H]2C(=O)N[C@@H](CC(=O)O)C(=O)O)[C@@H](C)CC)NC(=O)[C@H]([C@@H](C)CC)NC(=O)[C@@H]2CCCN2C(=O)[C@@H]2CCCN2C(=O)[C@H](CC(C)(C)C)NC(=O)[C@H](CO)NC(=O)[C@H](CCCNC(=N)N)NC(=O)[C@H](CO)NC1=O
B5: AIC+SRSLP-(Oic)-I-(Pen)+IP-NH2 (peptide)
peptide: AICSRSLP[Oic]I[Pen]IP-NH2
modifications: disulfide 3-11; N-terminus assumed
SMILES: CC[C@H](C)[C@H](NC(=O)[C@H](C)N)C(=O)N[C@H]1CSSC(C)(C)[C@@H](C(=O)N[C@H](C(=O)N2CCC[C@H]2C(N)=O)[C@@H](C)CC)NC(=O)[C@H]([C@@H](C)CC)NC(=O)[C@@H]2C[C@@H]3CCCC[C@@H]3N2C(=O)[C@@H]2CCCN2C(=O)[C@H](CC(C)C)NC(=O)[C@H](CO)NC(=O)[C@H](CCCNC(=N)N)NC(=O)[C@H](CO)NC1=O

Numbered stars: 1 amine (or outer) side, 2 acyl side, 3 side chain; on linkers, the order of the positions; unused ones are H or OH. Bridge positions count the residues as written; N and C are the ends. Square brackets hold non-standard residues; d marks the D form. Ends that are not written are not given here. NH(CH2CH2O)4CH2CO = O=C(COCCOCCOCCOCCN[*:1])[*:2]; Oic = O=C(O)[C@@H]1C[C@@H]2CCCC[C@@H]2N1; PEG8 = NCCOCCOCCOCCOCCOCCOCCOCCOCCC(=O)O; tBuAla = CC(C)(C)C[C@H](N)C(=O)O; Cit = NC(=O)NCCC[C@H](N)C(=O)O; Pen = CC(C)(S)[C@H](N)C(=O)O; PEG3 = NCCOCCOCCOCCC(=O)O; PEG2 = NCCOCCOCCC(=O)O; Sar = CNCC(=O)O

One assay addresses T1, recombinant human MASP1 active protease …. As to the kind of experiment: cell-based or functional assay.
As for B1, the “human MASP1 IC50” value worked out at 2.2 nM.
As for B2, the “human MASP1 IC50” value was determined as 2.3 nM.
Turning to B3, the “human MASP1 IC50” value came to 2.2 nM.
The same measure, in the same setting: the result for [Sar]ICSRS[tBuAla]PPI[Pen]IP-{PEG8-NH2} (disulfide 3-11) [((N-Me)G)-IC+SRS-((tBu)A)-PPI-(Pen)+IP-(PEG8(28 atoms))-NH2] reads 2.2 nM; that for B4, 2.2 nM; that for B5, 2.2 nM.

The target of another assay is recombinant human MASP2 active protease (amino acids 297-686, C-terminal His Tag) (human, UniProt O00187 297-686). As to the kind of experiment: cell-based or functional assay.
Sequence of recombinant human MASP2 active protease (amino acids 297-686, C-terminal His Tag) (O00187 other isoform, or with tags, fused parts or gaps limits assumed): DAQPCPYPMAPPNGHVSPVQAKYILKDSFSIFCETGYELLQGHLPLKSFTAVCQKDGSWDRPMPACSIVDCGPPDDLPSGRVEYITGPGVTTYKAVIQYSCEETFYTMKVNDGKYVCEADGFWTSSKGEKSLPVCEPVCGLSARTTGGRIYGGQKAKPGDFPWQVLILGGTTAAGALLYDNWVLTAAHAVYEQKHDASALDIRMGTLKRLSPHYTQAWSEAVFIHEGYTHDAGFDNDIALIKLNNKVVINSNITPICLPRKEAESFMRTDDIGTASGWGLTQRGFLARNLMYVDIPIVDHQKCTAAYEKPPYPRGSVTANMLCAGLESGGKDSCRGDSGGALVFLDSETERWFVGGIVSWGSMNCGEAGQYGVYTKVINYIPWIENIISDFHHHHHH
As to B1, the “human MASP2 IC50” value was 30 nM.
For the molecule B2, the “human MASP2 IC50” value worked out at 87 nM.
With B3, the “human MASP2 IC50” value worked out at 42 nM.
For the molecule [Sar]ICSRS[tBuAla]PPI[Pen]IP-{PEG8-NH2} (disulfide 3-11) [((N-Me)G)-IC+SRS-((tBu)A)-PPI-(Pen)+IP-(PEG8(28 atoms))-NH2], the “human MASP2 IC50” value worked out at 52 nM.
Same read-out and setting: then B4, with 65 nM; and B5, with 63 nM.
